Consider 4 substances from paper PMC3190738.

The assay has as its target His-tagged-YFP-PKI-NES. Description: fluorescence polarisation.
In turn, “CRM1 1–1062 + VLV > AAA (from UniProt Q6P5F9 1-1062) (domain or fragment)” yielded a Kd of 25 nM. The result for “CRM1 HEAT 9 loop variant (VLV > AAA) (from UniProt Q6P5F9 1-1071) (natural protein)” reads 200 nM. “CRM1-1–1062 (from UniProt Q6P5F9 1-1062) (domain or fragment)” yielded an equilibrium dissociation constant (Kd) of 1700 nM.

For “wild type mouse CRM1 (1–1071) (from UniProt Q6P5F9 1-1071) (natural protein)”, the equilibrium dissociation constant (Kd) amounted to 15600 nM.
